Experimental data: US12617830B2, “Analogues of PYY” (IP2IPO Innovations Limited, priority 2017, dated 2026)
Ends that are not written are not given here.

Tests used:
[1] = target: T1, human Neuropeptide Y Receptor Y2 (Homo sapiens, UniProt P49146); assay: In vitro receptor potency: inhibition of forskolin-stimulated cAMP in hY2 CHO-K1 cells; assay type: cell-based; settings: for Average ratio to PYY2-36 ± SEM: ratio of example compound EC50 to PYY2-36 EC50, cAMP, hY2 CHO-K1 cells (DiscoverX), 0.02 mM forskolin, 30 minutes
T1 construct: host or cells: CHO-K1
T1 sequence (P49146 1-381): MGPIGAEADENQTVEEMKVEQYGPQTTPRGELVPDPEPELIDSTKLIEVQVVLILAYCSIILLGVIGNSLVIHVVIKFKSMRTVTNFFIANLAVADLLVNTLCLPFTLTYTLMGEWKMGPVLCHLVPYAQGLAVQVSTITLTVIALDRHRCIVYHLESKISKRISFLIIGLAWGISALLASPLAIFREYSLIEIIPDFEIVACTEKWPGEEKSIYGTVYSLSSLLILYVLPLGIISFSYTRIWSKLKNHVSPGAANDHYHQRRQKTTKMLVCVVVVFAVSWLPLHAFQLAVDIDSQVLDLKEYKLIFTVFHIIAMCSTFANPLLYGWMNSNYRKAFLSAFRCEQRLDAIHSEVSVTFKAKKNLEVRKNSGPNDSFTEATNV
Procedure: (§1) DiscoverX® hY2 CHO-K1 cells (10,000 cells per well (96 well plate)) were resuspended in media containing 0.2 mM IBMX and 0.02 mM forskolin (which stimulates cAMP production) and test peptides at a range of concentrations, for 30 minutes. The reaction stopped by lysing the cells and cAMP quantified 60 minutes later using Cisbio cAMP dynamic 2 kit.
as §1, with “Ten thousand” for “DiscoverX® hY2 CHO-K1 cells (10,000”, “plate)” for “plate))”

[2] = tested on: overnight fasted male Wistar rats; assay: Rat feeding experiment, single subcutaneous injection, food intake and body weight monitored for 6 days; assay type: in vivo; settings: single subcutaneous injection of peptide in saline vs control saline; monitored for following 6 days; FIGS. 3A-3D, 4A-4D
Text: Animals were randomised into treatment groups, with stratification by body weight.

Average ratio to PYY2-36 ± SEM [1]	Substance	ability to inhibit forskolin production (potency compared with Y242) ([1]; hY2 CHO-K1 cells, compared with previous generation compound Y242, FIG. 2)	reductions in food intake and body weight [2]
0.8 ± 0.16	Pro-Ile-Lys-Pro-Glu-Ala-Pro-Gly-Glu-Gly-Ala-Ser-Pro-Glu-Glu-Leu-Leu-His-Tyr-Tyr-Ala-Ala-Leu-Arg-His-Phe-Leu-Asn-His-Val-Thr-Arg-Gln-Arg-Tyr-NH2 (PIKPEAPGEGASPEELLHYYAALRHFLNHVTRQRY-NH2) [Peptide Y1419]	much more potent inhibitor than the previous generation of preferred compounds	a single initial dose is still active at 160 hours after administration
0.9 ± 0.09	Y1421: example PYY analogue peptide; sequence given in FIGS. 1A-1D (PIKPEAPGQGASPEELLHYYAALRHFLNHVTRQRY-NH2) [Peptide Y1421]	–	–
1.7 ± 0.13	Y1518: example PYY analogue peptide; sequence given in FIGS. 1A-1D (PIKPEAPGEGASPEELLHYYAALRHFLNHLTRQRY-NH2) [Peptide Y1518]	–	–
